Results on two sequences are retold here after US11673916B2, “Neuroprotective peptides and methods of their use” (University of Pittsburgh—Of the Commonwealth System of …, priority 2020, dated 2023).

The target in this experiment is T1, Kv2.1 surface clusters (Mus musculus, UniProt Q03717).
T1 construct: immunohistochemical staining of endogenous Kv2.1 channel distribution; from tissue; host or cells: cerebral cortex of C57BL/6J mice, fixed coronal brain sections
T1 sequence (Q03717 1-857): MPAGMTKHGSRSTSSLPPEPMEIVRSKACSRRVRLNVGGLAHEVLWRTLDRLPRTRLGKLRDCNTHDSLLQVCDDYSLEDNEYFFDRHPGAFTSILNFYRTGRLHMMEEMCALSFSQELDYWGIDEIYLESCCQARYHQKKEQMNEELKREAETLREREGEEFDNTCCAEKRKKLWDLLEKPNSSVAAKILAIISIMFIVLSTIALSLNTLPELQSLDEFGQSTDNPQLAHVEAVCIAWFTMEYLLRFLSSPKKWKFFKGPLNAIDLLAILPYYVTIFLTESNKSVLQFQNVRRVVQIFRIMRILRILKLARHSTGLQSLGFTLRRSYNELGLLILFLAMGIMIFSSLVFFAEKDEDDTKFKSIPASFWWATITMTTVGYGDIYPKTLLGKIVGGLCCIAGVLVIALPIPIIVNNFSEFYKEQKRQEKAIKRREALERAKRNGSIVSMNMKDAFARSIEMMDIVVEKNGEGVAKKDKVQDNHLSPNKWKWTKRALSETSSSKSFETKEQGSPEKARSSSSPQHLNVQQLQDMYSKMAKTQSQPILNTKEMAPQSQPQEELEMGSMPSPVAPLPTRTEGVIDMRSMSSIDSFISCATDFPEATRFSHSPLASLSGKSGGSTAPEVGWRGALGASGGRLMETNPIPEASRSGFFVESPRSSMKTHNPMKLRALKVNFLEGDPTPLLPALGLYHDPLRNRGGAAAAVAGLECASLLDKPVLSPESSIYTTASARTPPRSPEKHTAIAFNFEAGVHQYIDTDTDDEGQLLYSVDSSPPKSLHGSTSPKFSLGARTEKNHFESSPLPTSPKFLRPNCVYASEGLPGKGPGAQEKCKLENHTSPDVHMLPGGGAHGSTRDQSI
The experiment is described as follows: Immunohistochemistry of Kv2.1 clusters in mouse cerebral cortex after intraperitoneal peptide injection. Format: in vivo. The conditions noted are these: 6 nmol/g intraperitoneal, sacrificed 2 hours post-injection, mean±SEM (FIG. 5D). The method, then:
Eight-week-old C57BL/6J male mice (28-30 g; Jackson, Bar Harbor, Me.) were administered IP injections of 6 nmol/g TAT-DP-2 (n=3) or TAT-Sc-2 peptide (n=3). Two hours post-injection, mice were anesthetized with 3% isoflurane (Henry Schein Animal Health, Dublin, Ohio) in a 3:1 […] gas mixture. Fifty mL of ice-cold 1× sterile PBS was transcardially perfused (5-10 mL/min), immediately followed by 50 mL of 4% sterile paraformaldehyde (PFA; 5-10 mL/min). Brains were removed and placed in 4% PFA at 4° C. for 24 hours, then transferred to 30% sucrose in 1× PBS at 4° C. for 48-72 hours. […]
To analyze Kv2.1 distribution in live primary cortical neurons, cells were transfected with both a tdTomato construct and a GFP-tagged Kv2.1 construct (O'Connell, et al., J Neurosci. 26: 9609-9618, 2006) and imaged on a Nikon A1+ confocal microscope (Nikon, Tokyo, Japan). […] For live images of transfected neurons, object count parameters were customized to define a Kv2.1 cluster as an area of high intensity GFP fluorescence (compared to background), measuring 0.05 μm^2 or larger (Schulien et al., J Physiol (Lond). 594: 2647-2659, 2016). Kv2.1 cluster density was calculated by normalizing the number of Kv2.1 clusters counted to the somatic area of each neuron (#Kv2.1 clusters/μm^2). […]

Take “YGRKKRRQRRRDFSSIST [TAT-Sc-2, TAT-linked scramble control peptide]”: the “mean Kv2.1 cluster density in superficial cortex” value is 565.70±50.72 #Kv2.1 clusters/image field.

For the sequence “YGRKKRRQRRRSIDSFTS [TAT-DP-2, TAT-linked declustering peptide 2]”, the “mean Kv2.1 cluster density in superficial cortex” value is given as 301.10±39.60 #Kv2.1 clusters/image field.
